Reference: patent publication US20150359843A1 (AGENCY FOR SCIENCE TECHNOLOGY AND RESEARCH, published 2015)
No end group written: not given here.

Biological target: T1, p53 wt-FL (human, UniProt P04637 1-393)
T1 construct: mature; Full-length protein made by in vitro transcription/translation, used unpurified in the IVT mixture; also called wild-type full length p53; IVT synthesized p53 wt-FL
Test: ELISA conformation 1: biotinylated peptide on streptavidin plate, IVT p53 wt-FL added, detected with DO-1, Bp53 10.1 or CM1 and HRP secondary; ctrl = no p53 extract

T1 sequence (P04637 whole entry): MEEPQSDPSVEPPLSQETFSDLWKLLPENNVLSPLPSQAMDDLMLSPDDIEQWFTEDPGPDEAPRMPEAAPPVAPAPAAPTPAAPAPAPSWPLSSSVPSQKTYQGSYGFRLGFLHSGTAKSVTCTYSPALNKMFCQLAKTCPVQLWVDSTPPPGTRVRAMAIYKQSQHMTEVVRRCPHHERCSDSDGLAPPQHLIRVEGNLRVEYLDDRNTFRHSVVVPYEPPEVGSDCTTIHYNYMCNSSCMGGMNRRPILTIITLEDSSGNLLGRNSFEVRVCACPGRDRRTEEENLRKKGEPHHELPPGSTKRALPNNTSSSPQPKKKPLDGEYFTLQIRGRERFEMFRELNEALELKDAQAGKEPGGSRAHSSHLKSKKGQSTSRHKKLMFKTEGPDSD

binding result | Binder
no binding | MPHLMAC (also: biotin at N- or C-terminus in ELISA forms, also called peptide MPH) [Pap-MPH]
no binding | SPTTNH (also: biotin at N- or C-terminus in ELISA forms only, also called peptide SPT; Peptide-P1) [Pap-SPT]
